The source of these data is patent US20240166765A1, “INFLAMMATORY DISEASE TREATMENT USING ANTI-TISSUE FACTOR ANTIBODIES” (Iconic Therapeutics LLC, priority 2020, published 2024).

In experiment [1] the target is h1-107_r (human/rat chimera). Briefly: live cell staining, flow cytometry. In general terms: A flow cytometer gives signals particle by particle.
Experiment [2] concerns the target r141-194_h (rat/human chimera) (UniProt P42533). Briefly: live cell staining, flow cytometry.
Experiment [3] concerns the target h1-107_r (human/rat chimera). Briefly: live cell staining, flow cytometry, HEK293 cells expressing the construct.
The target in experiment [4] is r141-194_h (rat/human chimera) (UniProt P42533). The experiment is described as above.

Chain of h1-107_r (human/rat chimera) (chain, as listed by the source mutant limits assumed): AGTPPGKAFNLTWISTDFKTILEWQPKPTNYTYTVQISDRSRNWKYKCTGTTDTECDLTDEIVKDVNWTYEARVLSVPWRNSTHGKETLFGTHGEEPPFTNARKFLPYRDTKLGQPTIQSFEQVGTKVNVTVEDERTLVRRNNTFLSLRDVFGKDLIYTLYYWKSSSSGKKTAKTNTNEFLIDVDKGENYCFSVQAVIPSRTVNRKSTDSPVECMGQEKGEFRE

Turning to 5G9 (antibody), the results for the Percent antibody binding to TF construct relative to hTF in experiment [1] and in experiment [2] were 41% and 32%, respectively. For the same substance, the Percentage antibody binding to TF construct relative to hTF in experiment [3] and in experiment [4] was < 50% throughout.
